Results published in patent US20240166729A1 (RAMOT AT TEL AVIV UNIVERSITY, published 2024).

Key:
[1] = molecular target: T1, His-tagged EspB (EspB-His), recombinant EPEC EspB (enteropathogenic E. coli (EPEC) O127:H6 …, UniProt Q05129 1-321); experiment: ELISA on coated EspB, 274 mM NaCl
T1 construct: also called recombinant EspB (full-length); full-length EspB
T1 sequence: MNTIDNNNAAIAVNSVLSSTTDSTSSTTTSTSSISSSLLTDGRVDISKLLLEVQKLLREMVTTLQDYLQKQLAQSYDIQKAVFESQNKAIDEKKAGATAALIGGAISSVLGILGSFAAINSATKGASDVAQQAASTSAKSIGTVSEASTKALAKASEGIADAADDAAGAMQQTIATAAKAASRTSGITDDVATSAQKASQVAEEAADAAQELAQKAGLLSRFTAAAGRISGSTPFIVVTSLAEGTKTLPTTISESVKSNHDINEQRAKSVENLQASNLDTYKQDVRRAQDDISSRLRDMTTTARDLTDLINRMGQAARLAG

[2] = molecular target: T1, His-tagged EspB (EspB-His), recombinant …; experiment: ELISA on coated EspB, antibody in 0.1 M citric acid buffer, pH 7.4, 7.0, 6.6 and 5.6 (one reading for the bundle of four curves)
[3] = molecular target: T1, His-tagged EspB (EspB-His), recombinant …; experiment: ELISA (FIG. 4A) and SPR (FIG. 4B): Biacore, EspB amine-coupled on chip, mAb 10-90 nM, steady-state fit
[4] = molecular target: T1, His-tagged EspB (EspB-His), recombinant …; experiment: ELISA on coated EspB, 411 mM NaCl
[5] = molecular target: T2, native EspB of wild-type EPEC; experiment: western blot of normalized culture supernatants after SDS-PAGE, mAb-EspB-B7 as primary antibody, anti-human IgG HRP
T2 construct: also called EPEC EspB

C. rodentium EspB = molecular target: T3, C. rodentium EspB (Citrobacter rodentium DBS100); experiment: as above
T3 construct: also called EspB of Citrobacter rodentium

[6] = molecular target: T1, His-tagged EspB (EspB-His), recombinant …; experiment: ELISA on coated EspB, antibody diluted in 3% milk in PBS or in goat or horse serum with 1% human serum (one reading for the bundle of three curves)
EHEC EspB = molecular target: T4, EHEC EspB; experiment: western blot of bacterial supernatant with mAb-EspB-B7
T4 construct: also called EspB of enterohemorrhagic E. coli

Salmonella EspB homolog = molecular target: T5, Salmonella EspB homolog (Salmonella enterica serovar Typhimurium, UniProt D0ZV21 1-409); experiment: as above
T5 sequence: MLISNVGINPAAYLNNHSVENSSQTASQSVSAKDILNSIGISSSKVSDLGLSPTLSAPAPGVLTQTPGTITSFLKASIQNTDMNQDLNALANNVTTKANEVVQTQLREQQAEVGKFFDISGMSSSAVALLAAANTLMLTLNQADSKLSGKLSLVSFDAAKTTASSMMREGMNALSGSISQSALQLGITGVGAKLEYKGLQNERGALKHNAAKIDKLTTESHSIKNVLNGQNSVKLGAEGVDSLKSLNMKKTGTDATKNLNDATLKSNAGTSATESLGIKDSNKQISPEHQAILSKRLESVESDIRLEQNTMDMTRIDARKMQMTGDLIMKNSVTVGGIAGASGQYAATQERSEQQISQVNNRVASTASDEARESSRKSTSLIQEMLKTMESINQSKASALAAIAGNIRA

[7] = molecular target: T1, His-tagged EspB (EspB-His), recombinant …; experiment: indirect ELISA, 5 ug/ml EspB coated, serial dilution of the antibody, goat anti-human H+L HRP
[8] = molecular target: T1, His-tagged EspB (EspB-His), recombinant …; experiment: ELISA on coated EspB, 45.6, 68.5 and 137 mM NaCl (one reading for the bundle)

B1: mAb-EspB-B7 (antibody, V domains shown)
VH: EVQLLESGGGLVQPGGSLRLSCAASGFTFSHYAMNWVRQAPGKGLEWVSAINSNGDSTYYPDTVKDRFTISRDNSKNTLYLQMNSLRAEDTAVYYCARDRRAGYFDYWGQGTLVTVSS
VL: DIVLTQPPSASGTPGQRVTISCSGSRDNIGKNYVSWYQQLPGTAPKLLIYRNNQRPSGVPDRFSGSKSGTSASLAISGLRSEDEADYYCSAWDTSLNAYVFGPGTQLTVL
notes: also called mAb-B7; B7 IgG1
For B1, the “EC50 (read off the curve)” value [1] was about 8 nM, the “EC50 (read off the curve)” value [2] was about 20 nM and the Kd [3] was 17.4 nM. For the same binder, the “EC50 (read off the curve)” value [4] was about 10 nM, the binding result [5] was “binds” and the binding result (C. rodentium EspB) was “binds”. For the same binder, the “EC50 (read off the curve)” value [6] was about 3 nM, the binding result (EHEC EspB) was “binds” and the binding result (Salmonella EspB homolog) was “no binding”. For the same binder, the “EC50 (read off the curve)” value [7] was about 8 nM and the “EC50 (read off the curve)” value [8] was about 3 nM.
